According to PMC8591536, “DNA asymmetry promotes SUMO modification of the single‐stranded DNA‐binding protein RPA” (The EMBO Journal, 2021):

Experiments:
[1] = biological target: Siz2 full length;RPA (Rfa1/Rfa2/Rfa3) (Saccharomyces cerevisiae? (budding …, UniProt Q12216;P22336;P26754;P26755 1-726;1-621;1-273;1-122, |)); assay: EMSA; Siz2 titrated into RPA-DNA; 5 mM MgCl2; FP: 20 mM HEPES pH 7.5, 125 mM NaCl, 0.1% Tween-20, 23°C, 50 nM DNA (RPA/SUMO-RPA on ss32: 1 nM DNA, plus 5 mM MgCl2, 1 mM DTT); EMSA: same buffer with 5 mM MgCl2 (Fig 8 also 1 mM DTT), 23°C, 6% gel in 0.5x TBE; conditions: protein: recombinant;recombinant; tags: His6-Smt3 removed with Ulp1;noncleavable N-terminal His6 on Rfa2; copies: 1;1;1;1; label: 5' 6-FAM on strand 2 (fw20); 20 bp duplex, 3' overhang 32 nt (dT)
Chain of Siz2 full length;RPA (Rfa1/Rfa2/Rfa3) (Saccharomyces cerevisiae? (P22336 whole entry, chain 2 of 3): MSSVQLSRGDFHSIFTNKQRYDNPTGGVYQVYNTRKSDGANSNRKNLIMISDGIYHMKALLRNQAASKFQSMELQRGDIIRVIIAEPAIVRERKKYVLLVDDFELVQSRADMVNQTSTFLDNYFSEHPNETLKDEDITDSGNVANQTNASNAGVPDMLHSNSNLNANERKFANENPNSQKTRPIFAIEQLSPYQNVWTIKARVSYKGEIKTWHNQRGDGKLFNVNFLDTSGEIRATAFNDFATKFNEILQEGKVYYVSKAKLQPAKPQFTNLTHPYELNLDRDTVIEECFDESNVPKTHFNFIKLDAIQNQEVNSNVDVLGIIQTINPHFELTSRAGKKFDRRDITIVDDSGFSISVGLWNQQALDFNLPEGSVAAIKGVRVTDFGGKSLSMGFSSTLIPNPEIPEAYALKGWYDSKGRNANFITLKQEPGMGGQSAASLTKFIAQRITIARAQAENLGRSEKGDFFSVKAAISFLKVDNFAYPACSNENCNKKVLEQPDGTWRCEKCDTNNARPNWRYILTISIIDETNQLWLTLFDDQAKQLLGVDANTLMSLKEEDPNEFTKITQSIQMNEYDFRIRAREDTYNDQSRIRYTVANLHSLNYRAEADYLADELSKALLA
Chain of Siz2 full length;RPA (Rfa1/Rfa2/Rfa3) (Saccharomyces cerevisiae? (P26754 whole entry, chain 3 of 3): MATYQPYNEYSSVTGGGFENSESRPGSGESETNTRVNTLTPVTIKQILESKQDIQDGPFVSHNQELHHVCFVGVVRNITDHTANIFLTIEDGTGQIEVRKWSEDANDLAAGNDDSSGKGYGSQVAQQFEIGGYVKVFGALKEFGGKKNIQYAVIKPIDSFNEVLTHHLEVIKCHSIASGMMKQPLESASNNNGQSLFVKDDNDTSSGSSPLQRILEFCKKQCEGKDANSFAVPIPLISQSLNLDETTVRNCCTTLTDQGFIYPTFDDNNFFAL
Chain of Siz2 full length;RPA (Rfa1/Rfa2/Rfa3) (Saccharomyces cerevisiae? (P26755 whole entry, chain 4 of 3): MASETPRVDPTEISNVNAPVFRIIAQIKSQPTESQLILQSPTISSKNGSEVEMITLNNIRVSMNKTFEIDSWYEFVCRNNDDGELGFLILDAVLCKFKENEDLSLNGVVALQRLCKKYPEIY

Siz2∆CT K65E K66E = biological target: T1, Siz2∆CT K65E K66E (Saccharomyces cerevisiae? (budding …, UniProt Q12216 1-420, K65E;K66E)); assay: fluorescence polarization; FP: 20 mM HEPES pH 7.5, 125 mM NaCl, 0.1% Tween-20, 23°C, 50 nM DNA (RPA/SUMO-RPA on ss32: 1 nM DNA, plus 5 mM MgCl2, 1 mM DTT); EMSA: same buffer with 5 mM MgCl2 (Fig 8 also 1 mM DTT), 23°C, 6% gel in 0.5x TBE; conditions: protein: recombinant; tags: His6-thioredoxin removed with TEV; label: 5' 6-FAM on strand 1; blunt
T1 sequence: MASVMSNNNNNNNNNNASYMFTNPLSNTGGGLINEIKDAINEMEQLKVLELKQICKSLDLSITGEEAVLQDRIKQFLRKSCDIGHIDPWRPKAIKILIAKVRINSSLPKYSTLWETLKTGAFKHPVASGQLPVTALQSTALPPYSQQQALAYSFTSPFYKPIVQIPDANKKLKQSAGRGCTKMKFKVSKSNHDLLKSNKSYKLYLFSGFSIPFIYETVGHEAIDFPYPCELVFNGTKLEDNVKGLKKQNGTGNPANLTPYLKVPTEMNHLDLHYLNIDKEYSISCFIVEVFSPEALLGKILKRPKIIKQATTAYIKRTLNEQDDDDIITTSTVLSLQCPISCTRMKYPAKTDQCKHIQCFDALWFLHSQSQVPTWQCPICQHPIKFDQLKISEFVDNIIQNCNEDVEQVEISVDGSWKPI

B1: 6-FAM-ds20ss32 (mixed)
DNA 1: GAAGCAAAACTAGCTACAGCTTTTTTTTTTTTTTTTTTTTTTTTTTTTTTTT
DNA 2: GCTGTAGCTAGTTTTGCTTC
B1: binds [1].

B2: 6-FAM-ds20 (dsDNA)
DNA 1: GCTGTAGCTAGTTTTGCTTC
DNA 2: GAAGCAAAACTAGCTACAGC
B2: no binding (Siz2∆CT K65E K66E).
